We go through 10 molecules from patent US20070244048A1 (published 2007).

No end group written: not given here. *: point of attachment. (PEG)2 40 kDa = branched PEG of 40 kDa linked via the Cys side-chain thiol (code C2 = Cys(PEG)2 40 kDa); Cholesteroyl = cholesterol linked to a cysteine residue via the side-chain thiol; Succinimide(1-Et,3-yl) = CCN1C(=O)CC(*)C1=O

Sequences and labels used below:
T1: human NMUR1 (human, UniProt Q9HB89 1-426)
T1 sequence (looked up): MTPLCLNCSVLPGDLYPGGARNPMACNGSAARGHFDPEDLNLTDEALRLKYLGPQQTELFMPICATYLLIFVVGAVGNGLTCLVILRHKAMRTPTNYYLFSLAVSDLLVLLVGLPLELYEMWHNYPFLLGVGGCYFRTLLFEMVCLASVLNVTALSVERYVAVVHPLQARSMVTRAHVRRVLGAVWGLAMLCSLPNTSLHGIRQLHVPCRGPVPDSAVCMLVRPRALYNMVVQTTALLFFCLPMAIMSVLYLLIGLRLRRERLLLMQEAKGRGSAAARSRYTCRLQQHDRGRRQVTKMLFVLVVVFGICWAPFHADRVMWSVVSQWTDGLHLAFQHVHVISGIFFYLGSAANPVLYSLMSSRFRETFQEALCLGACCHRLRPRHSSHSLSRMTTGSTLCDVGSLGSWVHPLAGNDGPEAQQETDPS

T2: rat NMUR1-ATG (rat, UniProt Q9JJI5 1-425)
T2 sequence (looked up): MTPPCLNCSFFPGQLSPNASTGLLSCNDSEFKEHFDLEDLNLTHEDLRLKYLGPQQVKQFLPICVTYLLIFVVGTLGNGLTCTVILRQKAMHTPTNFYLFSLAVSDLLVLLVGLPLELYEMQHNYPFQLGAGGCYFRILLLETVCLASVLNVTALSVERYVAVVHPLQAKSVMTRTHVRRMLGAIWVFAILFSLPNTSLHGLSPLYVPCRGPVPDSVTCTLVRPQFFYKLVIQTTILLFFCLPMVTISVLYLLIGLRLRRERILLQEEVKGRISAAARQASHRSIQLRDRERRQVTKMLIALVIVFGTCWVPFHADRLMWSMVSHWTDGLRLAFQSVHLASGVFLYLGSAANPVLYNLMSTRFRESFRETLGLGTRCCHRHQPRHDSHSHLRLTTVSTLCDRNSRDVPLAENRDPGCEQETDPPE

T3: mouse NMUR1-CTG (mouse, UniProt O55040 1-428)
T3 sequence (looked up): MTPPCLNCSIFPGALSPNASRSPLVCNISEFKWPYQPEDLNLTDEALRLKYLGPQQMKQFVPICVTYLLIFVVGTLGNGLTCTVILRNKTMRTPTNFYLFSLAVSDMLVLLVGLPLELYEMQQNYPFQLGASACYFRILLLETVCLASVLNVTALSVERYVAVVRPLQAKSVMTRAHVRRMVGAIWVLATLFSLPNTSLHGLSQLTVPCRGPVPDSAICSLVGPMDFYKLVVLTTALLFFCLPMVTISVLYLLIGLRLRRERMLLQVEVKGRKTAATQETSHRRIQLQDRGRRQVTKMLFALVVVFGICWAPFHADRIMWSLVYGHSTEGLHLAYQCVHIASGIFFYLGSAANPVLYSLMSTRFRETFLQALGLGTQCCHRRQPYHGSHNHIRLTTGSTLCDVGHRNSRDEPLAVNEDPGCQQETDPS

T4: mouse NMUR1-ATG (mouse, UniProt O55040 1-428)
T4 sequence (looked up): T3 sequence (looked up)

B1: NMU5 (peptide)
peptide: Ac-FRVDEEFQSPFASQSRPYFLFRPRN-NH2
B2: NMU10 (peptide)
peptide: Ac-C(Cholesteroyl)FRVDEEFQSPFASQSRGYFLFRPRN-NH2
B3: NMU7 (peptide)
peptide: Ac-C((PEG)2 40 kDa)GYFLFRPRN-NH2
B4: NMU1 (peptide)
peptide: FRVDEEFQSPFASQSRGYFLFRPRN-NH2
modifications: not fully specified (N-terminus)
B5: NMU3 (peptide)
peptide: GYFLFRPRN-NH2
B6: NMU4 (peptide)
peptide: FRVDEEFQSPFASQSRPYFLFRPRN-NH2
B7: NMU2 (peptide)
peptide: Ac-FRVDEEFQSPFASQSRGYFLFRPRN-NH2
B8: NMU11 (peptide)
peptide: Ac-C(Cholesteroyl)GYFLFRPRN-NH2
B9: NMU9 (peptide)
peptide: Ac-C((PEG)2 40 kDa)FRVDEEFQSPFASQSRGYFLFRPRN-NH2
B10: NMU6 (peptide)
peptide: Ac-C(Succinimide(1-Et,3-yl))GYFLFRPRN-NH2
SMILES: CCN1C(=O)CC(SC[C@H](NC(C)=O)C(=O)NCC(=O)N[C@@H](Cc2ccc(O)cc2)C(=O)N[C@@H](Cc2ccccc2)C(=O)N[C@@H](CC(C)C)C(=O)N[C@@H](Cc2ccccc2)C(=O)N[C@@H](CCCNC(=N)N)C(=O)N2CCC[C@H]2C(=O)N[C@@H](CCCNC(=N)N)C(=O)N[C@@H](CC(N)=O)C(N)=O)C1=O

Sequence of mouse NMUR2 (Q8BZ39 whole entry): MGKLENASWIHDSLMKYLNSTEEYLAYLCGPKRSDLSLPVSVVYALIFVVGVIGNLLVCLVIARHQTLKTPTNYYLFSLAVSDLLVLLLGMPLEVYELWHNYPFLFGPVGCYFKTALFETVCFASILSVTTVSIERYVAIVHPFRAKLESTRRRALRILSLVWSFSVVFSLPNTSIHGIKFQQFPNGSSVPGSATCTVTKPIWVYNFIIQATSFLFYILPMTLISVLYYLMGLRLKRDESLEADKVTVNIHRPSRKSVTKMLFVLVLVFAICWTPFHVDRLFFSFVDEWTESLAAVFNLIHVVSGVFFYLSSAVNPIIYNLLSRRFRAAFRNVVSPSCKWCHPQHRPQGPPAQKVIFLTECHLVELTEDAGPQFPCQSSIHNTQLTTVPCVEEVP
Sequence of human NMUR2 (Q9GZQ4 whole entry): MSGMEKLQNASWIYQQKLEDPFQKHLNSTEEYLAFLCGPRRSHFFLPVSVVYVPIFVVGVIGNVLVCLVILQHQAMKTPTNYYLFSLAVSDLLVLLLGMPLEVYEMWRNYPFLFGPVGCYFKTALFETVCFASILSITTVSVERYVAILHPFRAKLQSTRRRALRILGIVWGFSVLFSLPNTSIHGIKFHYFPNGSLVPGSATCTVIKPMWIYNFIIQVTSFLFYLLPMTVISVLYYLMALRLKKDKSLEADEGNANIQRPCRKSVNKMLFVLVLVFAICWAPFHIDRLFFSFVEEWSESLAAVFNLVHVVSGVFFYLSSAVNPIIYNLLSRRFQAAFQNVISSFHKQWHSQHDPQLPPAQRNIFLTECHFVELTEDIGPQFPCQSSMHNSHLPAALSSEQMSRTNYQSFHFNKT

In one assay the target is T1, human NMUR1. Briefly: cell-based or functional assay.
For the molecule B1, the “% Activity (FLIPR)” value was found to be 98.1% and the “EC50 (FLIPR)” value amounted to 6.1 nM.
On to B2, for which the “% Activity (FLIPR)” value is 26.6% and the “EC50 (FLIPR)” value was 1000 nM.
Take B3: the “% Activity (FLIPR)” value is 91.4% and the “EC50 (FLIPR)” value came to 79.6 nM.
Consider B4, for which the “% Activity (FLIPR)” value worked out at 83.7% and the “EC50 (FLIPR)” value is 81.4 nM.
As to B5, the “% Activity (FLIPR)” value is 98.9% and the “EC50 (FLIPR)” value was 5.6 nM.
As to B6, the “% Activity (FLIPR)” value was determined as 97% and the “EC50 (FLIPR)” value came to 7.2 nM.
Taken in the same sequence, the figures for B7 were 99% and 5.5 nM.
For the molecule B8, the “% Activity (FLIPR)” value was determined as 20.6% and the “EC50 (FLIPR)” value worked out at 1000 nM.
For the molecule B9, the “% Activity (FLIPR)” value was 94.4% and the “EC50 (FLIPR)” value is 50.6 nM.
With B10, the “% Activity (FLIPR)” value was found to be 96.7% and the “EC50 (FLIPR)” value was found to be 3.5 nM.

The next assay addresses human NMUR2 (human, UniProt Q9GZQ4 1-415). In words: cell-based or functional assay.
Take B1: the “% Activity (FLIPR)” value stood at 98.1% and the “EC50 (FLIPR)” value was found to be 2.5 nM.
For B2, the “% Activity (FLIPR)” value turned out to be 31.3% and the “EC50 (FLIPR)” value turned out to be 1000 nM.
In the case of B3, the “% Activity (FLIPR)” value was found to be 91.8% and the “EC50 (FLIPR)” value was 36.1 nM.
On to B4, for which the “% Activity (FLIPR)” value was 85% and the “EC50 (FLIPR)” value was found to be 64.8 nM.
As to B5, the “% Activity (FLIPR)” value came to 100% and the “EC50 (FLIPR)” value came to 1.9 nM.
Consider B6, for which the “% Activity (FLIPR)” value was 100% and the “EC50 (FLIPR)” value was 2.6 nM.
Taken in the same sequence, the figures for B7 were 97.4% and 2.6 nM.
Taken in the same sequence, the figures for B8 were 37.3% and 1000 nM.
As to B9, the “% Activity (FLIPR)” value was 94.3% and the “EC50 (FLIPR)” value was 91.1 nM.
In the case of B10, the “% Activity (FLIPR)” value came out at 100% and the “EC50 (FLIPR)” value was 1.5 nM.

The target in the next assay is rat NMUR2 (rat, UniProt Q9ESQ4 1-395). In words: cell-based or functional assay.
Sequence of rat NMUR2 (Q9ESQ4 whole entry): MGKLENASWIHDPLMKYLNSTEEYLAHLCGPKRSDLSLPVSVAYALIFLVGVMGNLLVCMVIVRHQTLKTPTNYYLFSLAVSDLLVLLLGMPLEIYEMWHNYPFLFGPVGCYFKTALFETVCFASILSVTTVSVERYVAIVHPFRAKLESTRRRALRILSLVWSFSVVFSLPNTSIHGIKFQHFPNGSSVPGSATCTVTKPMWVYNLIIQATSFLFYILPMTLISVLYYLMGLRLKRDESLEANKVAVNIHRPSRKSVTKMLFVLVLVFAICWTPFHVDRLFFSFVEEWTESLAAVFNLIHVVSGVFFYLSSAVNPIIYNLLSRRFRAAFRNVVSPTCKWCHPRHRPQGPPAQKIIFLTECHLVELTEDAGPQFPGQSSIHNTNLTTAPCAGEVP
Take B1: the “% Activity (FLIPR)” value is 100% and the “EC50 (FLIPR)” value was determined as 2.3 nM.
Take B2: the “% Activity (FLIPR)” value is 97.4% and the “EC50 (FLIPR)” value was determined as 41.5 nM.
The corresponding values for B4 are 87.1% and 71.7 nM.
Consider B5, for which the “% Activity (FLIPR)” value came to 100% and the “EC50 (FLIPR)” value worked out at 1.8 nM.
With B6, the “% Activity (FLIPR)” value was 100% and the “EC50 (FLIPR)” value turned out to be 2.9 nM.
In the case of B7, the “% Activity (FLIPR)” value is 100% and the “EC50 (FLIPR)” value amounted to 2.2 nM.
As for B8, the “% Activity (FLIPR)” value was found to be 33.2% and the “EC50 (FLIPR)” value came to 1000 nM.
On to B9, for which the “% Activity (FLIPR)” value was found to be 100% and the “EC50 (FLIPR)” value was 4.5 nM.
Taken in the same sequence, the figures for B10 were 100% and 1.5 nM.

A further assay addresses T2, rat NMUR1-ATG. Briefly: cell-based or functional assay.
As for B1, the “% Activity (FLIPR)” value was determined as 100% and the “EC50 (FLIPR)” value amounted to 3.6 nM.
In the case of B2, the “% Activity (FLIPR)” value was determined as 80.1% and the “EC50 (FLIPR)” value is 201 nM.
Turning to B4, the “% Activity (FLIPR)” value worked out at 59.3% and the “EC50 (FLIPR)” value stood at 718 nM.
For the molecule B5, the “% Activity (FLIPR)” value was 100% and the “EC50 (FLIPR)” value was 0.7 nM.
Turning to B6, the “% Activity (FLIPR)” value was 100% and the “EC50 (FLIPR)” value was 3.8 nM.
B7: the “% Activity (FLIPR)” value is 89.2% and the “EC50 (FLIPR)” value worked out at 3.3 nM.
As to B8, the “% Activity (FLIPR)” value worked out at 50.9% and the “EC50 (FLIPR)” value turned out to be 316 nM.
Consider B9, for which the “% Activity (FLIPR)” value worked out at 100% and the “EC50 (FLIPR)” value came out at 9.7 nM.
The corresponding values for B10 are 100% and 1 nM.

The target of the next assay is T3, mouse NMUR1-CTG. Briefly: cell-based or functional assay.
As to B1, the “% Activity (FLIPR)” value turned out to be 100% and the “EC50 (FLIPR)” value was determined as 11.9 nM.
As to B2, the “% Activity (FLIPR)” value amounted to 69.2% and the “EC50 (FLIPR)” value worked out at 1000 nM.
Take B5: the “% Activity (FLIPR)” value turned out to be 100% and the “EC50 (FLIPR)” value turned out to be 4.7 nM.
Consider B6, for which the “% Activity (FLIPR)” value turned out to be 100% and the “EC50 (FLIPR)” value came to 11.6 nM.
In the case of B7, the “% Activity (FLIPR)” value was found to be 100% and the “EC50 (FLIPR)” value was 8.3 nM.
Taken in the same sequence, the figures for B8 were 65% and 600 nM.
The corresponding values for B9 are 71.7% and 1000 nM.
Turning to B10, the “% Activity (FLIPR)” value came out at 100% and the “EC50 (FLIPR)” value was found to be 2 nM.

Another assay deals with T4, mouse NMUR1-ATG. Briefly: cell-based or functional assay.
For B1, the “% Activity (FLIPR)” value was determined as 100% and the “EC50 (FLIPR)” value stood at 3.3 nM.
For the molecule B2, the “% Activity (FLIPR)” value is 76.8% and the “EC50 (FLIPR)” value stood at 173 nM.
As for B5, the “% Activity (FLIPR)” value was found to be 100% and the “EC50 (FLIPR)” value is 2.9 nM.
Regarding B6, the “% Activity (FLIPR)” value came out at 100% and the “EC50 (FLIPR)” value was 3.6 nM.
Turning to B7, the “% Activity (FLIPR)” value stood at 100% and the “EC50 (FLIPR)” value was determined as 2.1 nM.
For B8, the “% Activity (FLIPR)” value amounted to 81.3% and the “EC50 (FLIPR)” value was 1000 nM.
Regarding B9, the “% Activity (FLIPR)” value was found to be 95% and the “EC50 (FLIPR)” value was 45.7 nM.
As to B10, the “% Activity (FLIPR)” value turned out to be 100% and the “EC50 (FLIPR)” value was determined as 1 nM.

Another assay addresses mouse NMUR2 (mouse, UniProt Q8BZ39 1-395). In words: cell-based or functional assay.
Regarding B1, the “% Activity (FLIPR)” value was 100% and the “EC50 (FLIPR)” value is 1 nM.
B2: the “% Activity (FLIPR)” value came out at 70.5% and the “EC50 (FLIPR)” value was found to be 1000 nM.
In the case of B4, the “% Activity (FLIPR)” value is 95.7% and the “EC50 (FLIPR)” value was 31 nM.
The corresponding values for B5 are 100% and 1 nM.
Consider B6, for which the “% Activity (FLIPR)” value is 100% and the “EC50 (FLIPR)” value stood at 1.2 nM.
Turning to B7, the “% Activity (FLIPR)” value came to 100% and the “EC50 (FLIPR)” value was determined as 1.2 nM.
The corresponding values for B8 are 70.5% and 1000 nM.
As to B9, the “% Activity (FLIPR)” value was determined as 100% and the “EC50 (FLIPR)” value came out at 19 nM.
Taken in the same sequence, the figures for B10 were 100% and 0.7 nM.
